We go through 3 substances from patent US20020151463A1.

Test [1] concerns the target murine MSH receptor (mouse) (UniProt Q01727). In words: competition binding of cold ACTH against 125I-ACTH1-39 on Cloudman M-3 melanoma cells.
Test [2] addresses HEK-293 clones transfected with hMC1R, hMC3R or hMC5R. Briefly: radioligand binding with 125I-NDP-α-MSH on transfected HEK-293 clones.
A further test has as its target rat MC3-R (rat) (UniProt P32244). Briefly: cell-based or functional assay.

rat MC3-R (rat), sequence (P32244 whole entry): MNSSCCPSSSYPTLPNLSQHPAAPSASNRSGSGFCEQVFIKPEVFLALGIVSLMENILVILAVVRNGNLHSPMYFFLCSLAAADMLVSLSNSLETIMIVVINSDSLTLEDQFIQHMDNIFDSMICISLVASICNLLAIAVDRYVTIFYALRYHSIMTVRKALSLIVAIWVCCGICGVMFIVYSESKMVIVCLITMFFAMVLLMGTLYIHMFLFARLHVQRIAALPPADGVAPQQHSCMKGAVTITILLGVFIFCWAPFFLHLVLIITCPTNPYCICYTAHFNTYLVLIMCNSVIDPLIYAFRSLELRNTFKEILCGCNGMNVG
murine MSH receptor (mouse), sequence (Q01727 whole entry): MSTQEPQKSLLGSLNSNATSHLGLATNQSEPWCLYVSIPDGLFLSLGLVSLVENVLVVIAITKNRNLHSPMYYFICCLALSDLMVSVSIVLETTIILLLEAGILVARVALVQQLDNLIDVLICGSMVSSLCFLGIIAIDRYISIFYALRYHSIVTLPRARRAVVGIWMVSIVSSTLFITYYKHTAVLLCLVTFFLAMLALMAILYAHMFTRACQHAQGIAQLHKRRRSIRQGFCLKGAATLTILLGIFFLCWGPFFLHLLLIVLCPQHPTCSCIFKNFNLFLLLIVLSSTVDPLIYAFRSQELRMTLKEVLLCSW
adrenocorticotropic hormone (unlabelled) (peptide), sequence (P01189 138-176): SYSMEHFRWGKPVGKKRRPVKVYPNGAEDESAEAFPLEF

As to “adrenocorticotropic hormone (unlabelled) (peptide)”, in test [1], the Kd (in general, the concentration at which binding is half-saturated) was found to be 63 nM.

“125I-labeled Nle,D-Phe (NDP)-α-MSH (from UniProt P01189 138-150) (peptide)”: the Ki (as a rule, a measure of affinity in units of concentration, obtained from inhibition or displacement) in test [2] lay within 0.11 to 0.58 nM.

Consider “α-melanocyte-stimulating hormone (from UniProt P01189 138-150) (peptide)”, for which, in the test with rat MC3-R (rat), the EC50 for adenylyl cyclase activation, rat MC3-R in 293 cells, α-MSH alone is 4.2 nM and the EC50 for adenylyl cyclase activation, rat MC3-R in 293 cells, α-MSH plus 0.7 nM murine agouti was 4.1 nM.
